To fix the notation:
B1: 4D11 (Kirin/Astellas) anti-CD40 antibody (antibody, V domains shown)
VH: QLQLQESGPGLLKPSETLSLTCTVSGGSISSPGYYGGWIRQPPGKGLEWIGSIYKSGSTYHNPSLKSRVTISVDTSKNQFSLKLSSVTAADTAVYYCTRPVVRYFGWFDPWGQGTLVTVSS
VL: AIQLTQSPSSLSASVGDRVTITCRASQGISSALAWYQQKPGKAPKLLIYDASNLESGVPSRFSGSGSGTDFTLTISSLQPEDFATYYCQQFNSYPTFGQGTKVEIK
B2: Antibody C (antibody, V domains shown)
VH: QVQLVQSGAEVKKPGASVKVSCTASGFNIKDYYVHWVKQAPGQGLEWMGRIDPEDGDSKYAPKFQGKATMTADTSTSTVYMELSSLRSEDTAVYYCTTSYYVGTYGYWGQGTLVTVSS
VL: DIQMTQSPSSLSASVGDRVTITCSASSSVSYMLWFQQKPGKAPKLLIYSTSNLASGVPSRFSGSGSGTDFTLTISSLQPEDFATYYCQQRTFYPYTFGGGTKVEIKR
notes: also called 2H11-159-94
B3: Antibody A (antibody, human IgG1, kappa, L234A L235A, V domains shown)
VH: EVQLVESGGGLVKPGGSLRLSCAASGFTFSDYGMHWVRQAPGKGLEWVAYISSGNRIIYYADTVKGRFTISRDNAKNSLYLQMNSLRAEDTALYYCARQDGYRYAMDYWAQGTLVTVSS
VL: DIVMTQSPDSLAVSLGERATMSCKSSQSLLNSGNQKNYLTWHQQKPGQPPKLLIYWTSTRESGVPDRFSGSGSGTDFTLTISSLQAEDVAVYYCQNDYTYPLTFGGGTKVEIKR
notes: also called 20E2-12
B4: Antibody B (antibody, V domains shown)
VH: B3 VH with L93V, A110G
VL: B3 VL with R18K, A19V, M21I, S22N
notes: also called 10E2-1

Positions count from the first letter of the chain named.

The target of one assay is human CD40 (cellular) (human, UniProt P25942 21-277). The experiment in a line: cell-based or functional assay.
Chain of human CD40 (cellular) (P25942 21-277): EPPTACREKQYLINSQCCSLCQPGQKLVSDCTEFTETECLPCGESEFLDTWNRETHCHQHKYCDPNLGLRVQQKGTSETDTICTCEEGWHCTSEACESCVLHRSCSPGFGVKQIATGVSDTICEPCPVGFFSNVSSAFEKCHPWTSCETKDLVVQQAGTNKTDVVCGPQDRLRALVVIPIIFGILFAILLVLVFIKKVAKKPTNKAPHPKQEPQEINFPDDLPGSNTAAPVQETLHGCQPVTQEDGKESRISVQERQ
On to B1, for which the “B cell proliferation: Agonism (SI*)” value was under 2 SI.

As for B2, the “B cell proliferation: Agonism (SI*)” value is under 2 SI.

In the case of B3, the “B cell proliferation: Agonism (SI*)” value is under 2 SI.

In the case of B4, the “B cell proliferation: Agonism (SI*)” value is under 2 SI.

For the next assay, the target named is T1, cynomolgus monkey CD40 (cynomolgus monkey, UniProt G7PG38 21-278).
T1 construct: whole, on cells; also called Cyno CD40; CD40 on cynomolgus B cells and platelets
The experiment in a line: ratio of binding EC50 human/cyno; ratio > 1 means increased binding to Cyno compared to Human.
For the molecule B2, the “Species cross-react.: Hu/Cyno Binding (EC50 ratios)” value amounted to 1.

As for B3, the “Species cross-react.: Hu/Cyno Binding (EC50 ratios)” value amounted to 3.

With B4, the “Species cross-react.: Hu/Cyno Binding (EC50 ratios)” value amounted to 2.

The record behind these values is US20160222124A1 (published 2016).
